Consider 1 protein from publication PMC10557607 (bioRxiv, 2023).

Broadly, the stoichiometry N is the number of molecules, sites or subunits per partner or assembly.

The data set deals with the molecule itself. The data set is described as follows: SEC + other: dynamic light scattering.

B1: AlbB expressed alone (natural protein, Streptomyces noursei)
chain: MNPGETVLPPQLREEIALLAVYLLSSGRGLLEEPADYGIYRCTDGARRALQLLDEHGGSTARLTAVRERLDEVMFAPMGEDRDMGAILDDLCRQMADALPEIETP
Turning to B1, the “stoichiometry N” value was 2.
